Reference: PMC10060833

Target: recombinant HAdV55 fiber protein (human adenovirus type 55 (HAdV55))
Experiment: SDS-PAGE without heating or reducing agent; purified recombinant fiber in loading buffer with 10% SDS, without beta-ME, kept at room temperature for 5 min ("Non-reducing")

Work on “recombinant HAdV55 fiber protein (natural protein)” yielded a stoichiometry N of 3.
